Experimental data as given in PMC9820451, “Coprinopsis cinerea Galectin CGL1 Induces Apoptosis and Inhibits Tumor Growth in Colorectal Cancer Cells” (International Journal of Molecular Sciences, 2022).

Target: the molecule itself
Test: dynamic light scattering; dilutions of the purified galectin filtered through 0.22 µm membranes, Zetasizer Nano-S; molecular weight estimated from the hydrodynamic radius; self-association, tetramer

B1: Coprinopsis cinerea galectin CGL1 (natural protein)
chain: MLYHLFVNNQIKLQDDFKAEAVATIRSSVFNSKGGTTVFNFLSAGENILLHISIRPGENAIVFNSRTKGGAWGPEERVPYAGKFKGPNPSITVLDHGDRFQILFDNATAIYYTKRIKENAAAIAYSAENSLFSSPVTVDIHGLLPPLPPA
notes: galectin CGL1 of Coprinopsis cinerea, full-length cgl1 amplified from genomic DNA of strain Okayama 7 (#130; ATCC MYA-4618), cloned into pET22b(+); No removal of the tag is told
- stoichiometry N: 4
